According to patent US20150011567:

Key:
[1] = test system: purified human H2B recombinant protein (NEB)
[2] = target: purified human H4 recombinant protein (NEB) (UniProt P62805)
[3] = test system: purified human H3 recombinant protein (NEB)
[4] = test system: purified human H2A recombinant protein (NEB)
[5] = test system: biotinylated H4-derived unphosphorylated peptide TVTAMDVVYALKRQGRT
[6] = test system: biotinylated human histone H2B derived peptide KRSRKESYSVYVYKVL

Chain of recombinant GST-WEE1 protein (Invitrogen) (chain, as listed by the source): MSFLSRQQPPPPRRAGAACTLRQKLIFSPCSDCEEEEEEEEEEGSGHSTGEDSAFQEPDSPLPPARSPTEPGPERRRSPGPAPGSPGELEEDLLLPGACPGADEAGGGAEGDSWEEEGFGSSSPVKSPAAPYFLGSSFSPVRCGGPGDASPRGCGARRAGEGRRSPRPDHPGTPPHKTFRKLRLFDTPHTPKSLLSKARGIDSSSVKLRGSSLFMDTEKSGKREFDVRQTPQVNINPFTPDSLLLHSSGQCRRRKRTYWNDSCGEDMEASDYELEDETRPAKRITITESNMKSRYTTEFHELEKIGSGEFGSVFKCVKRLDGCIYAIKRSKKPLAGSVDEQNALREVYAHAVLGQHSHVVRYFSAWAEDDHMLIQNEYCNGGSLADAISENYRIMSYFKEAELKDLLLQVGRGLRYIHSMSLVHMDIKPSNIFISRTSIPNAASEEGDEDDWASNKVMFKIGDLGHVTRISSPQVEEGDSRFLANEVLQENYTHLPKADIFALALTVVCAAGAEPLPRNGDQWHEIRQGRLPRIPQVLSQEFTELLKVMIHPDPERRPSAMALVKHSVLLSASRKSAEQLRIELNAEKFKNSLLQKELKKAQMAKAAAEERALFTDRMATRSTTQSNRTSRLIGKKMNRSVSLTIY

| Substance | in vitro kinase assay, immunoblot with pTyr37-H2B antibody [1] | in vitro kinase assay, immunoblot with pTyr37-H2B antibody [2] | in vitro kinase assay, immunoblot with pTyr37-H2B antibody [3] | in vitro kinase assay, immunoblot with pTyr37-H2B antibody [4] | in vitro kinase assay on plate-bound peptide, ELISA with pY88-H4 antibodies [5] | Peptide Immunosandwich Assay (PIA), H2B Tyr37-phosphorylation read at 450 nm [6] |
| --- | --- | --- | --- | --- | --- | --- |
| recombinant GST-WEE1 protein (Invitrogen) | When purified WEE1 and H2B were incubated, H2B was Tyr37-phosphorylated | failed to phosphorylate other three core histones, H2A, H3 and H4 | failed to phosphorylate other three core histones, H2A, H3 and H4 | failed to phosphorylate other three core histones, H2A, H3 and H4 | – | – |
| purified WEE1 protein (Examples 5 and 7) | – | – | – | – | Incubation of H4 peptide with WEE1 and Ack1 protein resulted in robust H4 Tyr88-phosphorylation | Purified WEE1 exhibited robust H2B Tyr37-phosphorylation |
